Reference: article PMC5523967, “Dimerized Domain V of Beta2-Glycoprotein I Is Sufficient to Upregulate Procoagulant Activity in PMA-Treated U937 Monocytes and Require Intact Residues in Two Phospholipid-Binding Loops” (Antibodies, 2017)
Changes are numbered by the printed parent chain.

Tests used:
Experiment in all cases: ITC; A1 (500 μM) in the injection syringe titrated in 2 μL increments into HA-DV or HA-DV variant (50 μM) in the sample cell; 298 K; 25 mM Hepes pH 7.1, 50 mM NaCl, 2 mM CaCl2; one site binding model
Conditions in all cases: both partners purified
HA-DV Lys308/Arg = molecular target: T1, HA-DV Lys308/Arg (human, UniProt P02749 263-345, Lys308/Arg)
T1 construct: beta2-glycoprotein I (β2GPI), human, domain V, residues 244-326, Lys308 to Arg; Point mutant of m2; also called Lys308/Arg variant of HA-DV; source: expressed from a pET15b vector and purified as previously described [34]; not shown: HA, N-terminal, kept
T1 sequence (looked up): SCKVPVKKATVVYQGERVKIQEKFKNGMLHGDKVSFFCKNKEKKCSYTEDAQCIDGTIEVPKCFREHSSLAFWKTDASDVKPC

HA-DV Lys282/Arg = molecular target: T2, HA-DV Lys282/Arg (human, UniProt P02749 263-345, Lys282/Arg)
T2 construct: beta2-glycoprotein I (β2GPI), human, domain V, residues 244-326, Lys282 to Arg; Point mutant of m2; also called Lys282/Arg variant of HA-DV; source: expressed from a pET15b vector and purified as previously described [34]; not shown: HA, N-terminal, kept
T2 sequence (looked up): T1 sequence (looked up) with K39R, R65K

[1] = molecular target: T3, HA-tagged domain V of human β2GPI (HA-DV), wild type (human, UniProt P02749 263-345)
T3 construct: beta2-glycoprotein I (β2GPI), human, domain V, residues 244-326; also called wild type HA-DV; β2GPI-DV; source: expressed from a pET15b vector and purified as previously described [34]; not shown: HA, N-terminal, kept
T3 sequence (looked up): T1 sequence (looked up) with R65K

[2] = molecular target: T4, HA-DV Leu313/Asp_Phe315/Ser (human, UniProt P02749 263-345, Leu313/Asp | Phe315/Ser)
T4 construct: beta2-glycoprotein I (β2GPI), human, domain V, residues 244-326, Leu313 to Asp and Phe315 to Ser; Double mutant of m2; source: expressed from a pET15b vector and purified as previously described [34]; not shown: HA, N-terminal, kept
T4 sequence (looked up): T1 sequence (looked up) with R65K, L70D, F72S

HA-DV Leu313/Asn = molecular target: T5, HA-DV Leu313/Asn (human, UniProt P02749 263-345, Leu313/Asn)
T5 construct: beta2-glycoprotein I (β2GPI), human, domain V, residues 244-326, Leu313 to Asn; Point mutant of m2; also called Leu313/Asn variant of HA-DV; source: expressed from a pET15b vector and purified as previously described [34]; not shown: HA, N-terminal, kept
T5 sequence (looked up): T1 sequence (looked up) with R65K, L70N

Measured: binding result

B1: A1, fragment of mouse ApoER2 (residues 12-47) in which Asp is substituted for Asn36 (domain or fragment)
chain: not shown
notes: source: Escherichia coli, purified as previously described [64]
binds: all assays above
